One test concerns the target RIM1_C2B (rat). Description: SEC-MALS. For orientation: SEC sorts molecules by how far they enter the pores of the column.
Test [1] has as its target liprin-α2_CC2N E380R (human) (UniProt O75334). Description: ITC.
Test [2] concerns the target interface II mutations (CC2N and C2B variants, ITC). In words: ITC. (Isothermal titration calorimetry measures the heat released or taken up as one component is titrated into another.)

The results in this text go back to paper doi:10.1101/2024.08.29.610253.

For orientation: stoichiometry N means the number of molecules, sites or subunits per partner or assembly.

liprin-α2_CC2N E380R (human), sequence (O75334 300-404 E380R): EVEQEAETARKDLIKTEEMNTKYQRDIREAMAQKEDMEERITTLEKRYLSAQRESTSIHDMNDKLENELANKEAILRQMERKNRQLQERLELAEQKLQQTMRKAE

In the test with RIM1_C2B (rat), RIM1_C2B (domain or fragment) displayed a stoichiometry N of 2. Further, the fold decrease in binding affinity in test [1] was 2 fold; in test [2] it was 5 fold.
